The text below walks through data of patent publication US6297356, “Telomere repeat binding factors and diagnostic and therapeutic use thereof” (The Rockfeller University).

The target in this data set is T1, TRF1 (MTRF12) (Mus musculus, UniProt P70371 SEQ:1-421).
T1 sequence: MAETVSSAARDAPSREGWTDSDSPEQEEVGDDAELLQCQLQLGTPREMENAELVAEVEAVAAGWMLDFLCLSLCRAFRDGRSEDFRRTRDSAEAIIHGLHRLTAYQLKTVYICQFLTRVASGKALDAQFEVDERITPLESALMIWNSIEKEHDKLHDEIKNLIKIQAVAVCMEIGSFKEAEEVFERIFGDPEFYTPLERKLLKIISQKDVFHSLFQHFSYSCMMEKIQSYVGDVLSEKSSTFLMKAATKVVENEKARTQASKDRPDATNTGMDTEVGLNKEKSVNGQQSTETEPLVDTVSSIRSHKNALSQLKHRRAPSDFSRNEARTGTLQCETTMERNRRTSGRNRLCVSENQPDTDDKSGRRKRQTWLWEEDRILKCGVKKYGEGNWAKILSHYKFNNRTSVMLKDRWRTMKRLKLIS
The data set is described as follows: EMSA; reticulocyte lysate. The note with it: chain copies: 2; label: labelled. From the text:
Figure 6: FIG. 6 depicts a gel-shift experiment showing telomeric repeat binding activity of protein encoded by the mouse MTRF12 cDNA. The cDNA was transcribed using T3 RNA polymerase and translated in a rabbit reticulocyte lysate. The probe is a $(TTAGGG)12$-containing restriction fragment. Competitions were done with plasmids containing long arrays of telomeric DNAs with the indicated sequence. Gel-shift methods are as described by (Zhong et al, 1992). […] Shown is two interphase nuclei in which the anti-FLAG antibodies detect a speckled TRF pattern (green) against the background of DAPI stained DNA (blue). […] Shown is a metaphase spread in which the anti-HA antibody detects TRF at each chromosome end (green). The DNA is stained with DAPI (blue).
The mouse cDNA (MTRF12) contained its own initiator codon and was transcribed and translated without further modification using the T3 promoter in its pBluescript vector. Similar to the human cDNA, a ~60 kD protein was synthesized that bound TTAGGG repeats but not TTGGGG or TTAGGC repeats (FIG. 6).
(In general: Mobility shift assays separate free from complexed probe on a gel.)

B1: (TTAGGG)12 restriction fragment (dsDNA)
DNA 1: GTACCCGGGGATCGTGACTCTAGAGGGGCCCTAACCCTAACCCTAACCCTAACCCTAACCCTAACCCTAACCCTAACCCTAACCCTAACCCTAACCCTAACCCTAACCCGGGTCGAATTCGATCTCTAGAGTCGACCTGCAGGCATGC
DNA 2: GCATGCCTGCAGGTCGACTCTAGAGATCGAATTCGACCCGGGTTAGGGTTAGGGTTAGGGTTAGGGTTAGGGTTAGGGTTAGGGTTAGGGTTAGGGTTAGGGTTAGGGTTAGGGTTAGGGCCCCTCTAGAGTCACGATCCCCGGGTAC
For the molecule B1, the binding result was “binds”.
